Test results as given in patent US20030119772A1.

Biological target: ZEB expressed in NIH 3T3 cells in the p21 promoter luciferase reporter assay
Experiment: cell-based or functional assay

| Substance | p21-promoter-driven luciferase reporter (p53-mediated transactivation) in NIH 3T3 cells | p21-promoter-driven luciferase reporter in NIH 3T3 cells, relative light units |
| --- | --- | --- |
| CtBP1 | 4 fold | – |
| 53BP1 co-expressed in NIH 3T3 cells in the p21 promoter luciferase reporter assay | – | 2 fold |
